Measurements from patent publication US20260209355.

Key:
[1] = system: quenched fluorogenic peptide of the human CD28 stalk region with L145K
[2] = system: c-Myc conjugated and biotinylated human CD28 stalk region dimeric peptide (wild-type)
[3] = system: quenched fluorogenic peptide of the human CD28 stalk region (WT)

c-Myc conjugated and biotinylated human CD28 stalk region dimeric peptide (wild-type), sequence (chain, as listed by the source): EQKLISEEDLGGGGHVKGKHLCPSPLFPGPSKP

## Recombinant human MMP-13
[1]
  fluorescence from cleavage of quenched fluorogenic peptide (2.5 µM peptide, 30 ng enzyme): both were completely incapable of cleaving the mutant peptide
[2]
  intact peptide by anti-Myc ELISA (25 and 50 ng enzyme, 5 hours): the WT peptide was cleaved in a dose dependent manner
[3]
  fluorescence from cleavage of quenched fluorogenic peptide: MMP-13 also cleaves the stalk domain, but at a much lower rate and efficiency than MMP-2
  fluorescence from cleavage of quenched fluorogenic peptide (2.5 µM peptide, 30 ng enzyme): both enzymes efficiently cleaved the WT peptide
  fluorescence from cleavage of quenched fluorogenic peptide, titration of protease: the cleavage of the peptide was dose dependent
